Measured values from patent US20100143888.

Target: T1, MOC-Arg-Ala-Glu-Leu-Gln-Gly-Pro-Tyr-Asp-Lys-DNP-NH2
T1 chain: RAELQGPYDK

B1: Human Rhinovirus serotype 1A 3C Protease (protein)
chain: GPEEEFGRSILKNNTCVITTGNGKFTGLGIHDRILIIPTHADPGREVQVNGVHTKVLDSYDLYNRDGVKLEITVIQLDRNEKFRDIRKYIPETEDDYPECNLALSANQDEPTIIKVGDVVSYGNILLSGNQTARMLKYNYPTKSGYCGGVLYKIGQILGIHVGGNGRDGFSAMLLRSYFTDTQ
With B1 the “Km (fluorescence resonance energy transfer protease activity assay)” value was “with a Km value of 16.8 µM”.
